Holding throughout (assay): Crosslinking/co-immunoprecipitation/mass spectrometry (TMT quantitative proteomics) to identify irisin receptors
Common to all, as to assay type: binding

Experiment [1] deals with T1, MLO-Y4 cell surface proteins (Mus musculus, UniProt E9Q0C6).
T1 construct: endogenous in cells; host or cells: MLO-Y4
The following applies: co-precipitated protein Gm14569 (E9Q0C6_MOUSE). As to the method: (§1) MLO-Y4 cells were seeded on 30×150 mm type-I collagen coated dishes as described in cell culture experiment. At 60% cell density, medium was switched to FreeStyle™ 293 Expression medium. After 4 hours incubation, the cells were chilled on ice for 10 minutes, followed by treatment of 10 nM his-tag irisin or his-tag adipsin for 20 minutes. The cells were then incubated with 1.5 mM DTSSP for 30 minutes on ice to do cross-linking, after washing with 15 ml cold PBS twice. The cross-linking was quenched by addition of a final concentration of 20 mM Tris-pH 7.5. The cells were then harvested and homogenized in 1 ml RIPA buffer containing proteaseinhibitor cocktailand phosphatase-inhibitor cocktail. Whole-cell lysates were homogenized by 10 times passages through a 22G needle fitted to a 3 ml syringe. Homogenized samples were rotated gently in cold room for 20 minutes followed by 15,000×g centrifugation for 10 minutes. After addition of a final concentration of 10 mM imidazole, supernatants were incubated with 100 μl Ni-NTA agarose for 1 hour. After centrifugation at 500×g for 1 minute, the supernatants were aspirated and 1 ml cold RIPA buffer containing 10 mM imidazole were added to the agarose. After 10 minutes rotation in cold room, the supernatants were aspirated and 1 ml cold RIPA buffer containing 30 mM imidazole were added to the agarose. After repeating the washing 3 times, 0.8 ml RIPA buffer containing 250 mM imidazole was added and the agarose was gently rotated in a cold room for 20 minutes. After centrifugation at 1000×g for 2 minutes, the supernatants were transferred to 1.5 ml tube and incubated with 100 μl 0.2% sodium deoxycholate and 100 μl 10% trichloroacetic acid in ice for 1 hour. After centrifugation at 12,000×g for 10 minutes at 4° C., the supernatants were removed and 1 ml cold acetone was added to the pellets followed by vortexing for 10 seconds. After one more washing with cold acetone, the pellets were dried at 37° C., and 39 μl PBS and 13 μl 4×NuPAGE LDS were added to the pellets with a final concentration of 5 mM DTT. Solubilized proteins were incubated at 65° C. for 20 minutes followed by incubation with a final concentration of 14 mM iodoacetamide for 45 minutes in the dark. 38 μl samples were loaded to 4-12% gradient SDS-PAGE for separation followed by Coomassie Blue staining. The gels were submitted to quantitative proteomics.
(§2) For in-gel digestions, gels were stained with Coomassie Blue and were excised into 8 equal segments for control and irisin lanes. Gel pieces were destained and dehydrated with 100% acetonitrile, vacuumed dried, and digested in 25 mM HEPES (pH 8.5) with 500 ng sequencing grade trypsin (Promega) and incubated for an overnight at 37° C. (Shevchenko et al. (1996) Anal. Chem. 68:850-858). Digests were treated with 1% formic acid and purified using C18 Stage-Tips as previously described (Rappsilber et al. (2007) Nat. Protoc. 2:1896-1906). Peptides were eluted with 70% acetonitrile and 1% formic acid, then dried using a speedvac. Isobaric labeling of digested peptides was accomplished using 6-plex tandem mass tag (TMT) reagents (Thermo Fisher Scientific, Rockford, Ill.). Reagents, 5.0 mg, were dissolved in 252 μl acetonitrile (ACN) and 5 μl of the solution was added to the digested peptides dissolved in 25 μl of 200 mM HEPES, pH 8.5. After 1 hour at room temperature, the reaction was quenched by adding 1 μl of 5% hydroxylamine. Labeled peptides were combined and acidified prior to C18 Stage-Tips desalting.
(§3) All LC-MS/MS experiments were performed on an Orbitrap Fusion™ Lumos mass spectrometer (Thermo Fisher Scientific, San Jose, Calif., USA) coupled with a Proxeon EASY-nLC™ 1200 LC pump (Thermo Fisher Scientific). Peptides were separated on a 100 μm inner diameter microcapillary column packed with 35 cm of Accucore™ C18 resin (1.8 μm, 100 Å, Thermo Fisher Scientific). […]

The target of experiment [2] is T2, MLO-Y4 cell surface proteins (Mus musculus, UniProt P62737).
T2 construct: endogenous in cells; host or cells: MLO-Y4
To be noted: co-precipitated protein Acta2 (ACTA_MOUSE). How it is done: as §1, §2, §3

The target of experiment [3] is T3, MLO-Y4 cell surface proteins (Mus musculus, UniProt Q8JZN5).
T3 construct: endogenous in cells; host or cells: MLO-Y4
T3 sequence (Q8JZN5 42-625): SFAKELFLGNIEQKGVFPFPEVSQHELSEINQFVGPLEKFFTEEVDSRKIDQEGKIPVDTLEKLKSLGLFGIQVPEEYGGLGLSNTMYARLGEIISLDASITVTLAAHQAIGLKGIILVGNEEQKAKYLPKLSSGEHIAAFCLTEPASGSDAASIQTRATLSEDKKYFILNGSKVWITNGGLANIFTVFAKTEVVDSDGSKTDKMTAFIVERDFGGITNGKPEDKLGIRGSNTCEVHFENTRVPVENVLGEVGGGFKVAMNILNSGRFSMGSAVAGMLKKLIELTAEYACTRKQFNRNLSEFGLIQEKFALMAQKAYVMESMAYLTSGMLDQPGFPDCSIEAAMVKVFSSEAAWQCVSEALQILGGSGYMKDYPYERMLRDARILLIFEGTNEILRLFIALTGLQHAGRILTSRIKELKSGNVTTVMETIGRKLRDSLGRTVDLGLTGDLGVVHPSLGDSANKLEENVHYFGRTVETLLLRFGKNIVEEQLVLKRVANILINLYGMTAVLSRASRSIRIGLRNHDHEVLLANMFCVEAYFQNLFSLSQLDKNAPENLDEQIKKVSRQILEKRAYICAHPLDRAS
To be noted: co-precipitated protein Acad9 (ACAD9_MOUSE). As to the method: as §1, §2, §3

Experiment [4] concerns the target T4, MLO-Y4 cell surface proteins (Mus musculus, UniProt Q8R1I1).
T4 construct: endogenous in cells; host or cells: MLO-Y4
T4 sequence (Q8R1I1 1-64): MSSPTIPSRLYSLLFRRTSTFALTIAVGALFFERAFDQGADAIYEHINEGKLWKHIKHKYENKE
The following applies: co-precipitated protein Uqcr10 (QCR9_MOUSE). How it is done:
as §1, §2, §3

Experiment [5] concerns the target T5, MLO-Y4 cell surface proteins (Mus musculus, UniProt Q8VHN7).
T5 construct: endogenous in cells; host or cells: MLO-Y4
To be noted: co-precipitated protein Gpr98 (GPR98_MOUSE). How it is done: as §1, §2, §3

The target of experiment [6] is T6, MLO-Y4 cell surface proteins (Mus musculus, UniProt Q9CY64).
T6 construct: endogenous in cells; host or cells: MLO-Y4
T6 sequence (Q9CY64 3-295): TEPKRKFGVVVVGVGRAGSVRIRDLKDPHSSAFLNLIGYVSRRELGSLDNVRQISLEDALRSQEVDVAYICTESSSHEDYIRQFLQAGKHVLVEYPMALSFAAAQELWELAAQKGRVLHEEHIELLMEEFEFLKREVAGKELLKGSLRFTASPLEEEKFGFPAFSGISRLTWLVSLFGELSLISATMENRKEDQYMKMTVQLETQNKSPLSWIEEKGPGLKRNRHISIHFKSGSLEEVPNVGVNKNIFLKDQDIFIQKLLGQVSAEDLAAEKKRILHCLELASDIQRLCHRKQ
To be noted: co-precipitated protein Blvra (BIEA_MOUSE). As to the method:
as §1, §2, §3

T1 sequence (E9Q0C6 whole entry): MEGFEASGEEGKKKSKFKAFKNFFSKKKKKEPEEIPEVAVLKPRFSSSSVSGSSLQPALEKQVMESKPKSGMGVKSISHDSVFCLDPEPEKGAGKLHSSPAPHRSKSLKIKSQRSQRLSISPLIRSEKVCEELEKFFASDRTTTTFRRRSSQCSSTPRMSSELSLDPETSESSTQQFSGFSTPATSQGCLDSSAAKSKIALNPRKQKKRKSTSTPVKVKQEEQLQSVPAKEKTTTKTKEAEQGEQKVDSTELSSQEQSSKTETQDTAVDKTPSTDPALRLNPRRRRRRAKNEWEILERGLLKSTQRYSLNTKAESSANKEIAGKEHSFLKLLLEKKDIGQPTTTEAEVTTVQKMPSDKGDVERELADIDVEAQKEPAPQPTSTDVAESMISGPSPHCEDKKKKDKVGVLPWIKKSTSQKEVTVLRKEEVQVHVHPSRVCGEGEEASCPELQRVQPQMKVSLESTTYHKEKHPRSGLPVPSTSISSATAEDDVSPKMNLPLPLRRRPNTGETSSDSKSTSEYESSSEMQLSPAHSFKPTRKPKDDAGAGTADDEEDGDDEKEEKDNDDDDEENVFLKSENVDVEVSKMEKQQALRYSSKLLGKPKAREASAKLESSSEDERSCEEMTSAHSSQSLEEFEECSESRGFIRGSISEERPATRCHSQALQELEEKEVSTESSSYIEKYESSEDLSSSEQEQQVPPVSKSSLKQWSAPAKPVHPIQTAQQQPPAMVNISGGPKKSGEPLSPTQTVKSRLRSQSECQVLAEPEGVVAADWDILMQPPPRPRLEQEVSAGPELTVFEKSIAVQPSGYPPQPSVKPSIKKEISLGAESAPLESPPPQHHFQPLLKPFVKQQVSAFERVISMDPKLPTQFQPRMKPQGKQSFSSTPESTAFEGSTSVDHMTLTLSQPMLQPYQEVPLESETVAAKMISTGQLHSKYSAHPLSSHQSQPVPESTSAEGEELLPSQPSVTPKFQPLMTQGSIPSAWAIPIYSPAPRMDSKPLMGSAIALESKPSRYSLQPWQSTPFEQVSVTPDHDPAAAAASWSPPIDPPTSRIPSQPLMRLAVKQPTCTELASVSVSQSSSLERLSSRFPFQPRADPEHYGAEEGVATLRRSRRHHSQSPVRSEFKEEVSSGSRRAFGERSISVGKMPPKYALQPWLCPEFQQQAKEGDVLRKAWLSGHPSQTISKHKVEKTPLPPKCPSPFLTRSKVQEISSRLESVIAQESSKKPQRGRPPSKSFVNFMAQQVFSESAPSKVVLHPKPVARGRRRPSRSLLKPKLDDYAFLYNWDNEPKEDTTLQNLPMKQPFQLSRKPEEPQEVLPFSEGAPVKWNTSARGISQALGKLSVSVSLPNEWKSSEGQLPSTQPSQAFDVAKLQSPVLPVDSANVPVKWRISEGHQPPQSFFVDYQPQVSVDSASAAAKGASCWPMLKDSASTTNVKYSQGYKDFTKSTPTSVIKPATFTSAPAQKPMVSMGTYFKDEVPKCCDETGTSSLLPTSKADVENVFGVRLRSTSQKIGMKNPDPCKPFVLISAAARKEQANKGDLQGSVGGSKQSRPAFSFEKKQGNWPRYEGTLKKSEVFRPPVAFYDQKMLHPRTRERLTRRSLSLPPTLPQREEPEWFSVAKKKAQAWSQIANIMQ

For the substance adipsin, the TMT signal-to-noise ratio in experiment [1] is listed as 224.172; in experiment [2], 361.157; in experiment [3], 127.125; in experiment [4], 243.198; in experiment [5] it was 618.49; in experiment [6] it was 302.865.
